# Laboratory results from patent publication US20200254071A1, “COMPOSITIONS AND METHODS FOR THROMBOEMBOLISM DISSOLUTION” (priority 2016, published 2020).
# Legend:
# [1] = tested on: thrombus or embolus in cats; conditions: cited from earlier work
# [2] = tested on: thrombus or embolus in cats with ATE; conditions: cited from earlier work
# [3] = tested on: blood clots; assay: thrombolytic activity of the single agents, inventor's private research study; type: in vivo; conditions: single agent
# Source text: However, both agents can be dissolved in stomach acids, rendering certain dosage forms nearly useless as thrombolytic agents. This may explain why the potency of previous oral thrombolytics is decreased in comparison to injected thrombolytic agents. Enteric coatings reduce the active ingredients' rate of digestion in stomach acids, leading to enhanced efficacy of the active ingredient(s).
# [4] = tested on: fibrinolytic activity in the plasma; assay: oral administration of nattokinase: fibrinolytic activity in the plasma; type: in vivo
# Source text: There are no known studies that examine the efficacy of nattokinase as a thrombolytic agent in cats.
# [5] = in vivo
# Protocol: To ensure the efficacy of these two thrombolytic agents, an enteric coating is appropriate for some orally administered embodiments. The enteric coating allows the nattokinase and rutin bioflavonoid to travel through the acidic environment of the stomach without being dissolved. Nattokinase and rutin can then be absorbed into the bloodstream or circulation via the small intestine. Once absorbed, nattokinase remains active in the bloodstream for approximately 12 hours. In one embodiment, the enteric coating is composed of methacrylic acid copolymer and triethyl citrate. Additional ingredients may include, for example, arabinoglactan, microcrystalline cellulose, maltodextrin, stearic acid, croscarmellose sodium, silicon dioxide. During this clinical trial, participants were not on any other thrombolytic or fibrinolytic (blood thinning) agents.
# [6] = tested on: artificially induced thrombosis; conditions: dogs, capsules orally; cited from earlier work
# [7] = purified form; cited from earlier work
molecule,measurement,setting,value
"tPA: tissue-plasminogen activator, veterinary drug with the potential to dissolve a thrombus or embolus",fatal complications due to metabolic acidosis and hyperkalemia,[1]; cats with ATE,70%
same,cats with perfusion restored to their limbs,[1]; fraction of cats given the drug,about two-thirds
streptokinase: veterinary drug with the potential to dissolve a thrombus or embolus,cats with pulses restored,[2]; fraction of 46 cats,about half
same,cats with motor function returned to their limbs,[2]; within 24 hours,30%
"nattokinase: naturally occurring proteolytic enzyme derived from natto, soybeans fermented with Bacillus subtilis natto (protein, UniProt P35835 107-381, looked up) Subtilisin NAT: AQSVPYGISQIKAPALHSQGYTGSNVKVAVIDSGIDSSHPDLNVRGGASFVPSETNPYQDGSSHGTHVAGTIAALNNSIGVLGVAPSASLYAVKVLDSTGSGQYSWIINGIEWAISNNMDVINMSLGGPTGSTALKTVVDKAVSSGIVVAAAAGNEGSSGSTSTVGYPAKYPSTIAVGAVNSSNQRASFSSVGSELDVMAPGVSIQSTLPGGTYGAYNGTSMATPHVAGAAALILSKHPTWTNAQVRDRLESTATYLGNSFYYGKGLINVQAAAQ",thrombolytic activity,[3],demonstrated thrombolytic activity
same,fibrinolytic activity in the plasma and production of tissue plasminogen activator,[4],mild and frequent enhancement
same,time active in the bloodstream,[5],approximately 12 hours
same,lysis of the thrombi by angiography,[6],lysis of the thrombi was observed
same,optimum pH of enzyme,[7],7
same,optimum temperature of enzyme,[7],37 °C
